The text below walks through data of IntAct's records for PubMed 29892012.

First the molecules themselves.
B1: Alpha-ketoglutarate-dependent dioxygenase alkB homolog 3 (Homo sapiens), Q96Q83 (parent)
chain: MEEKRRRARVQGAWAAPVKSQAIAQPATTAKSHLHQKPGQTWKNKEHHLSDREFVFKEPQQVVRRAPEPRVIDREGVYEISLSPTGVSRVCLYPGFVDVKEADWILEQLCQDVPWKQRTGIREDITYQQPRLTAWYGELPYTYSRITMEPNPHWHPVLRTLKNRIEENTGHTFNSLLCNLYRNEKDSVDWHSDDEPSLGRCPIIASLSFGATRTFEMRKKPPPEENGDYTYVERVKIPLDHGTLLIMEGATQADWQHRVPKEYHSREPRVNLTFRTVYPDPRGAPW
B2: Coiled-coil domain-containing protein 120 (Homo sapiens), Q96HB5-4 (parent)
chain: MRREPRYQGQVGPDIHTDSERTLSSHQPRPLDSTKMEVKGQLISSPTFNAPAALFGEAAPQVKSERLRGLLDRQRTLQEALSLKLQELRKVCLQEAELTGQLPPECPLEPGERPQLVRRRPPTARAYPPPHPNQAHHSLCPAEELALEALEREVSVQQQIAAAARRLALAPDLSTEQRRRRRQVQADALRRLHELEEQLRDVRARLGLPVLPLPQPLPLSTGSVITTQGVCLGMRLAQLSQEDVVLHSESSSLSESGASHDNEEPHGCFSLAERPSPPKAWDQLRAVSGGSPERRTPWKPPPSDLYGDLKSRRNSVASPTSPTRSLPRSASSFEGRSVPATPVLTRGAGPQLCKPEGLHSRQWSGSQDSQMGFPRADPASDRASLFVARTRRSNSSEALLVDRAAGGGAGSPPAPLAPSASGPPVCKSSEVLYERPQPTPAFSSRTAGPPDPPRAARPSSAAPASRGAPRLPPVCGDFLLDYSLDRGLPRSGGGTGWGELPPAAEVPGPLSRRDGLLTMLPGPPPVYAADSNSPLLRTKDPHTRATRTKPCGLPPEAAEGPEVHPNPLLWMPPPTRIPSAGERSGHKNLALEGLRDWYIRNSGLAAGPQRRPVLPSVGPPHPPFLHARCYEVGQALYGAPSQAPLPHSRSFTAPPVSGRYYADFLYPPELSARLSDLTLEGEQSSSSDTQTPGTLV
partner: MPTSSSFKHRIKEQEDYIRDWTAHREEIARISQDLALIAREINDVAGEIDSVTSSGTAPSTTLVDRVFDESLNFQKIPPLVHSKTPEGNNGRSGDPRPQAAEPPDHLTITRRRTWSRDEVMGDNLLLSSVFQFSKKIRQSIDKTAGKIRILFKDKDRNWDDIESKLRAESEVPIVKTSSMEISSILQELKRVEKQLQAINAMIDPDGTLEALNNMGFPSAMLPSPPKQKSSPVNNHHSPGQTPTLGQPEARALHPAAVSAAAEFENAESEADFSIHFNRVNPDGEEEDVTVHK
B3: Enhancer of mRNA-decapping protein 3 (Homo sapiens), Q96F86 (parent)
chain: MATDWLGSIVSINCGDSLGVYQGRVSAVDQVSQTISLTRPFHNGVKCLVPEVTFRAGDITELKILEIPGPGDNQHFGDLHQTELGPSGAGCQVGINQNGTGKFVKKPASSSSAPQNIPKRTDVKSQDVAVSPQQQQCSKSYVDRHMESLSQSKSFRRRHNSWSSSSRHPNQATPKKSGLKNGQMKNKDDECFGDDIEEIPDTDFDFEGNLALFDKAAVFEEIDTYERRSGTRSRGIPNERPTRYRHDENILESEPIVYRRIIVPHNVSKEFCTDSGLVVPSISYELHKKLLSVAEKHGLTLERRLEMTGVCASQMALTLLGGPNRLNPKNVHQRPTVALLCGPHVKGAQGISCGRHLANHDVQVILFLPNFVKMLESITNELSLFSKTQGQQVSSLKDLPTSPVDLVINCLDCPENVFLRDQPWYKAAVAWANQNRAPVLSIDPPVHEVEQGIDAKWSLALGLPLPLGEHAGRIYLCDIGIPQQVFQEVGINYHSPFGCKFVIPLHSA
partner: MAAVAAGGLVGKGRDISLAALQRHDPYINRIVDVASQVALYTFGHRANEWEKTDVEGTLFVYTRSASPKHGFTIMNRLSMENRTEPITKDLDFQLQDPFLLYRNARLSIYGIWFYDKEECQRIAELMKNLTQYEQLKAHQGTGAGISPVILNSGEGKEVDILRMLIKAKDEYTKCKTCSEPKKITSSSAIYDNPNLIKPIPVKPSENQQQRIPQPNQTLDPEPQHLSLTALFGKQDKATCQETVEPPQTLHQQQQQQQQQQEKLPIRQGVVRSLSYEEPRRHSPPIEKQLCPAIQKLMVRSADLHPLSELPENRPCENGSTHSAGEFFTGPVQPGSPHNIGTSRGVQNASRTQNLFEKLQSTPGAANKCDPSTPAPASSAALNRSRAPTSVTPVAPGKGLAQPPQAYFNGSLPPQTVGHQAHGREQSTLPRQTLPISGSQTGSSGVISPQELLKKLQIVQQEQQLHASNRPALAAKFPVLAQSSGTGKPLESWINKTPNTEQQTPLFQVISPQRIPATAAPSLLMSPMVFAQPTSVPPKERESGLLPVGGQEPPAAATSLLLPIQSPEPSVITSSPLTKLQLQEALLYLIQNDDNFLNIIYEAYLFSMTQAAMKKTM
B4: Enhancer of mRNA-decapping protein 3 (Homo sapiens), Q96F86 (parent)
chain: B3 chain
partner: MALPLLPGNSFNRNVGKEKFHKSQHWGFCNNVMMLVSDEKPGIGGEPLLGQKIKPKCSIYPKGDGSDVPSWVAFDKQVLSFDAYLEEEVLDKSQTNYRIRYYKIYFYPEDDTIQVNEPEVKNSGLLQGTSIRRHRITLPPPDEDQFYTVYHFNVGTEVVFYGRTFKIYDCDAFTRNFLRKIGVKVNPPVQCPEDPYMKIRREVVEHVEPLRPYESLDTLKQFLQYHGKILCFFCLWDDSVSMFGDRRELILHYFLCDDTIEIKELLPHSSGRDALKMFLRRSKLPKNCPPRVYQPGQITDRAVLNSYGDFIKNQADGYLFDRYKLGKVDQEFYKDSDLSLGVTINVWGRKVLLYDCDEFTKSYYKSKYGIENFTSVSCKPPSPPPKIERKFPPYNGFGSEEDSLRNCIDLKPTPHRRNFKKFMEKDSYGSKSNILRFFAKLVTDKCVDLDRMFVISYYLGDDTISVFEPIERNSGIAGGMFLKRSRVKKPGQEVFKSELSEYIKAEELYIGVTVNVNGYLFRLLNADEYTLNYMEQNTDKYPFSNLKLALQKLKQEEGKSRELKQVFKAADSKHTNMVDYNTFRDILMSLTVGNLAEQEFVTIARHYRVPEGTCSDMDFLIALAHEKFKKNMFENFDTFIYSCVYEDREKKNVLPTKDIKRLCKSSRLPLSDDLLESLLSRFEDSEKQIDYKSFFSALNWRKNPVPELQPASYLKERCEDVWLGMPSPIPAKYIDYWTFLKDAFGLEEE
B5: Coiled-coil domain-containing protein 120 (Homo sapiens), Q96HB5-4 (parent)
chain: B2 chain
partner: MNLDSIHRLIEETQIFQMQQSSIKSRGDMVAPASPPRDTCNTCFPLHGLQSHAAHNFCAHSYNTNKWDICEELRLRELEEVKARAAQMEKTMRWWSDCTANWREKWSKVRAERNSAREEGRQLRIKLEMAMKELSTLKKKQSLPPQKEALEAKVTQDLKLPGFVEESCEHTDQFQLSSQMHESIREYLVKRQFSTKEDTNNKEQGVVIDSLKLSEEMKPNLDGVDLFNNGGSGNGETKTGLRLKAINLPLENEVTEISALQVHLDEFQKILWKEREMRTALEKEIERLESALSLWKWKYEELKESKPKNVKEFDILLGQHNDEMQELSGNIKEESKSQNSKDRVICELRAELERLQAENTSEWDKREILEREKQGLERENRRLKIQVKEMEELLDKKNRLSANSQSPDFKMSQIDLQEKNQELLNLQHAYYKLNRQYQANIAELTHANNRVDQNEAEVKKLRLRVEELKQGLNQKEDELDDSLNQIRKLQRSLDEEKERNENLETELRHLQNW

The first experiment covers variants of B1. Conditions: with ikzf1_human IKZF1, Q13422.
Sequence of ikzf1_human IKZF1, Q13422 (Q13422 whole entry): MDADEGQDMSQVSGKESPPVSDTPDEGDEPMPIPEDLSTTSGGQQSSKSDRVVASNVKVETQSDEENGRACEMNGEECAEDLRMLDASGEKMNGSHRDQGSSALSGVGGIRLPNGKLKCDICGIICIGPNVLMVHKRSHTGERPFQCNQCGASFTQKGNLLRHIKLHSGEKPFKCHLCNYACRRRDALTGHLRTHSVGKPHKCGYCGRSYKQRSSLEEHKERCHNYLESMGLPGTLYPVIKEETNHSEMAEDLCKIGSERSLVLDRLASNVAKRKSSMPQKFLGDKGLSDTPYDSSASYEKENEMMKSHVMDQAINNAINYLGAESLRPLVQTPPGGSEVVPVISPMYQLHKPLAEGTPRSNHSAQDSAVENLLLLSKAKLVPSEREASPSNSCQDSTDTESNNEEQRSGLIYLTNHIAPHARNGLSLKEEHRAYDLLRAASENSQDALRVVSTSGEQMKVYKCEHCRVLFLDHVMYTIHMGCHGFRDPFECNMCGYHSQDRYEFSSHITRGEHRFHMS
Regarding R64H, the “effect of a mutation on the interaction” value is reported as “with no effect”.

The variants in a further experiment derive from B2. Conditions: with CEP170P1, Q96L14.
With R346W, the “effect of a mutation on the interaction” value is “with no effect”.

Another experiment covers variants of B3. Particulars: with dcp1b_human DCP1B.
In the case of F213L, the “effect of a mutation on the interaction” value was “with no effect”.

In the next experiment the parent is B4. Particulars: with efhc2_human EFHC2, Q5JST6.
Turning to F213L, the “effect of a mutation on the interaction” value is reported as “with no effect”.

The variants in the next experiment derive from B5. Conditions: with CCDC102B.
R346W: the “effect of a mutation on the interaction” value is “with no effect”.
